# In US8541373B2, “BChE albumin fusions for the treatment of cocaine abuse” (priority 2009, dated 2013):
# System: cocaine
# Test: Plasma cocaine, benzoylecgonine and ecgonine methyl ester (LC-MS) and cocaine PK after IV cocaine post-AlbuBChE
# Assay type: in vivo, cynomolgus monkeys
# Settings: 0.2 mg/kg IM
# Method: Blood was placed into K2EDTA blood collection tubes with esterase inhibitor diisopropylfluorophosphate (DFP). Tubes were inverted several times and placed on wet ice upon collection. Samples were centrifuged at 2-8° C. within 45 minutes of collection. The resultant plasma was recovered and a single 200 μL aliquot of plasma was placed into polypropylene tubes. Plasma samples were frozen over dry ice and stored at −75±15° C.
# The following outline describes the LC-MS-based assay employed for the measurement of cocaine in plasma samples. Prior to MS analysis, plasma samples, calibration standards and controls were extracted using supported liquid extraction (SLE-ISOLUTE, Biotage). Twenty-five microliters of samples (25 μL) received 150 μl of 5% Ammonium hydroxide and 25 μl internal standard solution (Cocaine-d3). After mixing and transfer to SLE plate, samples were eluted with methylene chloride and evaporated to dryness. After resuspension in 50 μl of reconstitution solution—5% ACM in 10 mM ammonium acetate in water, 10 μl was injected onto Thermo Hypercarb column at 0.5 ml/min. Mobile phase was biphasic. Mass spectrophotometric detection was performed using Api 4000, APCI positive interface and Multiple Reaction Monitoring (MRM). Plasma concentrations of cocaine, benzoylecgonine and ecgonine methyl ester were determined using this assay.
# When the data permits, pharmacokinetic parameter values for cocaine and its metabolites were determined using plasma concentration-times profiles for individual animals at all the study days of cocaine administration. […] Specifically the model for non-compartmental analysis with IV bolus input for cocaine and extravascular input for the metabolites.
# [1] = cocaine 1 mg/kg IV 2 hr post-AlbuBChE
# [2] = cocaine 1 mg/kg IV 2 hr post-AlbuBChE, 5 min after cocaine
# [3] = cocaine 1 mg/kg IV 2 hr post-AlbuBChE, 10 min after cocaine
# [4] = cocaine 1 mg/kg IV 2 hr post-AlbuBChE, 15 min after cocaine
# [5] = cocaine 1 mg/kg IV 2 hr post-AlbuBChE, 20 min after cocaine
# [6] = cocaine 1 mg/kg IV 2 hr post-AlbuBChE, 30 min after cocaine
# [7] = cocaine 1 mg/kg IV 2 hr post-AlbuBChE, 40 min after cocaine
# [8] = cocaine 1 mg/kg IV 2 hr post-AlbuBChE, 60 min after cocaine
# [9] = cocaine 1 mg/kg IV 48 hr post-AlbuBChE
# [10] = cocaine 1 mg/kg IV 48 hr post-AlbuBChE, 5 min after cocaine
# [11] = cocaine 1 mg/kg IV 48 hr post-AlbuBChE, 10 min after cocaine
# [12] = cocaine 1 mg/kg IV 48 hr post-AlbuBChE, 15 min after cocaine
# [13] = cocaine 1 mg/kg IV 48 hr post-AlbuBChE, 20 min after cocaine
# [14] = cocaine 1 mg/kg IV 48 hr post-AlbuBChE, 30 min after cocaine
# [15] = cocaine 1 mg/kg IV 48 hr post-AlbuBChE, 40 min after cocaine
# [16] = cocaine 1 mg/kg IV 48 hr post-AlbuBChE, 60 min after cocaine
# [17] = cocaine 1 mg/kg IV 96 hr post-AlbuBChE
# [18] = cocaine 1 mg/kg IV 96 hr post-AlbuBChE, 5 min after cocaine
# [19] = cocaine 1 mg/kg IV 96 hr post-AlbuBChE, 10 min after cocaine
# [20] = cocaine 1 mg/kg IV 96 hr post-AlbuBChE, 15 min after cocaine
# [21] = cocaine 1 mg/kg IV 96 hr post-AlbuBChE, 20 min after cocaine
# [22] = cocaine 1 mg/kg IV 96 hr post-AlbuBChE, 30 min after cocaine
# [23] = cocaine 1 mg/kg IV 96 hr post-AlbuBChE, 40 min after cocaine
# [24] = cocaine 1 mg/kg IV 96 hr post-AlbuBChE, 60 min after cocaine
# [25] = cocaine 1 mg/kg IV 120 hr post-AlbuBChE
# [26] = cocaine 1 mg/kg IV 120 hr post-AlbuBChE, 5 min after cocaine
# [27] = cocaine 1 mg/kg IV 120 hr post-AlbuBChE, 10 min after cocaine
# [28] = cocaine 1 mg/kg IV 120 hr post-AlbuBChE, 15 min after cocaine
# [29] = cocaine 1 mg/kg IV 120 hr post-AlbuBChE, 20 min after cocaine
# [30] = cocaine 1 mg/kg IV 120 hr post-AlbuBChE, 30 min after cocaine
substance,measurement,setting,value
AlbuBChE,Mean benzoylecgonine AUC(0-t),[1],3136 ng·min/mL
same,Mean cocaine AUC(0-t),[1],11878 ng·min/mL
same,Mean cocaine C0,[1],628 ng/mL
same,Ecgonine methyl ester plasma concentration (mean),[2],51.6 ng/mL
same,Mean benzoylecgonine plasma concentration,[2],50.6 ng/mL
same,Mean cocaine plasma concentration,[2],481 ng/mL
same,Ecgonine methyl ester plasma concentration (mean),[3],81.9 ng/mL
same,Mean benzoylecgonine plasma concentration,[3],49.7 ng/mL
same,Mean cocaine plasma concentration,[3],370 ng/mL
same,Ecgonine methyl ester plasma concentration (mean),[4],83.2 ng/mL
same,Mean benzoylecgonine plasma concentration,[4],50.4 ng/mL
same,Mean cocaine plasma concentration,[4],273 ng/mL
same,Ecgonine methyl ester plasma concentration (mean),[5],154 ng/mL
same,Mean benzoylecgonine plasma concentration,[5],65.1 ng/mL
same,Mean cocaine plasma concentration,[5],227 ng/mL
same,Ecgonine methyl ester plasma concentration (mean),[6],261 ng/mL
same,Mean benzoylecgonine plasma concentration,[6],28.6 ng/mL
same,Mean cocaine plasma concentration,[6],67.0 ng/mL
same,Ecgonine methyl ester plasma concentration (mean),[7],120 ng/mL
same,Mean benzoylecgonine plasma concentration,[7],58.0 ng/mL
same,Mean cocaine plasma concentration,[7],115 ng/mL
same,Ecgonine methyl ester plasma concentration (mean),[8],120 ng/mL
same,Mean benzoylecgonine plasma concentration,[8],60.5 ng/mL
same,Mean cocaine plasma concentration,[8],58.6 ng/mL
same,Mean benzoylecgonine AUC(0-t),[9],1989 ng·min/mL
same,Mean cocaine AUC % Extrap,[9],15.1%
same,Mean cocaine AUC(0-t),[9],7713 ng·min/mL
same,Mean cocaine AUC(0-∞),[9],9094 ng·min/mL
same,Mean cocaine C0,[9],274 ng/mL
same,Mean cocaine CI,[9],110 mL/min/kg
same,Mean cocaine Vss,[9],3.503 L/kg
same,Mean cocaine t½,[9],21.2 min
same,Ecgonine methyl ester plasma concentration (mean),[10],21.1 ng/mL
same,Mean benzoylecgonine plasma concentration,[10],27.3 ng/mL
same,Mean cocaine plasma concentration,[10],235 ng/mL
same,Ecgonine methyl ester plasma concentration (mean),[11],19.5 ng/mL
same,Mean benzoylecgonine plasma concentration,[11],29.4 ng/mL
same,Mean cocaine plasma concentration,[11],203 ng/mL
same,Ecgonine methyl ester plasma concentration (mean),[12],23.9 ng/mL
same,Mean benzoylecgonine plasma concentration,[12],29.0 ng/mL
same,Mean cocaine plasma concentration,[12],187 ng/mL
same,Ecgonine methyl ester plasma concentration (mean),[13],25.8 ng/mL
same,Mean benzoylecgonine plasma concentration,[13],28.2 ng/mL
same,Mean cocaine plasma concentration,[13],146 ng/mL
same,Ecgonine methyl ester plasma concentration (mean),[14],33.9 ng/mL
same,Mean benzoylecgonine plasma concentration,[14],37.1 ng/mL
same,Mean cocaine plasma concentration,[14],121 ng/mL
same,Ecgonine methyl ester plasma concentration (mean),[15],50.7 ng/mL
same,Mean benzoylecgonine plasma concentration,[15],36.9 ng/mL
same,Mean cocaine plasma concentration,[15],77.8 ng/mL
same,Ecgonine methyl ester plasma concentration (mean),[16],37.0 ng/mL
same,Mean benzoylecgonine plasma concentration,[16],35.6 ng/mL
same,Mean cocaine plasma concentration,[16],43.2 ng/mL
same,Mean benzoylecgonine AUC(0-t),[17],3270 ng·min/mL
same,Mean cocaine AUC % Extrap,[17],14.9%
same,Mean cocaine AUC(0-t),[17],11145 ng·min/mL
same,Mean cocaine AUC(0-∞),[17],13008 ng·min/mL
same,Mean cocaine C0,[17],451 ng/mL
same,Mean cocaine CI,[17],78.1 mL/min/kg
same,Mean cocaine Vss,[17],2.506 L/kg
same,Mean cocaine t½,[17],21.1 min
same,Ecgonine methyl ester plasma concentration (mean),[18],26.4 ng/mL
same,Mean benzoylecgonine plasma concentration,[18],49.7 ng/mL
same,Mean cocaine plasma concentration,[18],360 ng/mL
same,Ecgonine methyl ester plasma concentration (mean),[19],39.4 ng/mL
same,Mean benzoylecgonine plasma concentration,[19],47.7 ng/mL
same,Mean cocaine plasma concentration,[19],301 ng/mL
same,Ecgonine methyl ester plasma concentration (mean),[20],24.5 ng/mL
same,Mean benzoylecgonine plasma concentration,[20],52.6 ng/mL
same,Mean cocaine plasma concentration,[20],255 ng/mL
same,Ecgonine methyl ester plasma concentration (mean),[21],29.8 ng/mL
same,Mean benzoylecgonine plasma concentration,[21],55.1 ng/mL
same,Mean cocaine plasma concentration,[21],189 ng/mL
same,Ecgonine methyl ester plasma concentration (mean),[22],49.8 ng/mL
same,Mean benzoylecgonine plasma concentration,[22],56.5 ng/mL
same,Mean cocaine plasma concentration,[22],165 ng/mL
same,Ecgonine methyl ester plasma concentration (mean),[23],50.2 ng/mL
same,Mean benzoylecgonine plasma concentration,[23],55.2 ng/mL
same,Mean cocaine plasma concentration,[23],118 ng/mL
same,Ecgonine methyl ester plasma concentration (mean),[24],43.4 ng/mL
same,Mean benzoylecgonine plasma concentration,[24],57.8 ng/mL
same,Mean cocaine plasma concentration,[24],60.5 ng/mL
same,Mean benzoylecgonine AUC(0-t),[25],3583 ng·min/mL
same,Mean cocaine AUC % Extrap,[25],16.1%
same,Mean cocaine AUC(0-t),[25],11611 ng·min/mL
same,Mean cocaine AUC(0-∞),[25],14059 ng·min/mL
same,Mean cocaine C0,[25],391 ng/mL
same,Mean cocaine CI,[25],72.5 mL/min/kg
same,Mean cocaine Vss,[25],2.338 L/kg
same,Mean cocaine t½,[25],23.0 min
same,Ecgonine methyl ester plasma concentration (mean),[26],18.9 ng/mL
same,Mean benzoylecgonine plasma concentration,[26],55.1 ng/mL
same,Mean cocaine plasma concentration,[26],349 ng/mL
same,Ecgonine methyl ester plasma concentration (mean),[27],28.9 ng/mL
same,Mean benzoylecgonine plasma concentration,[27],46.9 ng/mL
same,Mean cocaine plasma concentration,[27],312 ng/mL
same,Ecgonine methyl ester plasma concentration (mean),[28],27.6 ng/mL
same,Mean benzoylecgonine plasma concentration,[28],53.1 ng/mL
same,Mean cocaine plasma concentration,[28],267 ng/mL
same,Ecgonine methyl ester plasma concentration (mean),[29],34.5 ng/mL
same,Mean benzoylecgonine plasma concentration,[29],55.9 ng/mL
same,Mean cocaine plasma concentration,[29],218 ng/mL
same,Ecgonine methyl ester plasma concentration (mean),[30],136 ng/mL
same,Mean benzoylecgonine plasma concentration,[30],64.2 ng/mL
same,Mean cocaine plasma concentration,[30],160 ng/mL
